T1: human MCAM C272A mutant (shotgun mutagenesis library clone, on cells) (human, UniProt P43121 24-646)
T1 construct: Expressed in BHK cells, immunodetection
T1 chain: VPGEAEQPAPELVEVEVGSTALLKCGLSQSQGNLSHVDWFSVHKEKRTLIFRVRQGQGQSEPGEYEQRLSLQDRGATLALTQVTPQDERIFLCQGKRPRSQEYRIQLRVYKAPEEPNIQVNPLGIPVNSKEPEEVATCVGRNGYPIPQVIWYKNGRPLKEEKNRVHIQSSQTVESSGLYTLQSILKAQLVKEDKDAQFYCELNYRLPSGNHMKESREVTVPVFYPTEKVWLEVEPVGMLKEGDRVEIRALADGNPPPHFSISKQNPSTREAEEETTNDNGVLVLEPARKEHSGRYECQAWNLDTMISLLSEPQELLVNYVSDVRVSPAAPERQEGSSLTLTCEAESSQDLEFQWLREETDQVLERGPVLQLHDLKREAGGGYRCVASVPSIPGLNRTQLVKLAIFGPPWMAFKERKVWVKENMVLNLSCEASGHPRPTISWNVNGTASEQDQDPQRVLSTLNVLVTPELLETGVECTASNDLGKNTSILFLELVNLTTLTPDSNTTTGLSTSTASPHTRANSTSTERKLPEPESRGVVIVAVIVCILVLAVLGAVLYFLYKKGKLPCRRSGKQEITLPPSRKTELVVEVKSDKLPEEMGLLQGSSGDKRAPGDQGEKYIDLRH


How the values were obtained:
[1] = molecular target: T2, recombinant laminin 511 (UniProt O15230 36-3695; P07942 22-1786; P11047 34-1609); experiment: flow cytometry on CHO cells transfected with human MCAM, pan-laminin antibody
T2 construct: also called laminin 10 (α5β1γ1)

[2] = molecular target: T1, human MCAM C272A mutant (shotgun …); experiment: shotgun mutagenesis library, immunodetection on BHK cells, normalized to wild type MCAM

binding result [1]	Binder	mean monoclonal antibody reactivity (% WT) [2] [% WT]
no binding (tested: 10 μg/ml)	human MCAM (full length, expressed on the surface of transfected cells) (receptor, also called CD146; MUC18) VPGEAEQPAPELVEVEVGSTALLKCGLSQSQGNLSHVDWFSVHKEKRTLIFRVRQGQGQSEPGEYEQRLSLQDRGATLALTQVTPQDERIFLCQGKRPRSQEYRIQLRVYKAPEEPNIQVNPLGIPVNSKEPEEVATCVGRNGYPIPQVIWYKNGRPLKEEKNRVHIQSSQTVESSGLYTLQSILKAQLVKEDKDAQFYCELNYRLPSGNHMKESREVTVPVFYPTEKVWLEVEPVGMLKEGDRVEIRCLADGNPPPHFSISKQNPSTREAEEETTNDNGVLVLEPARKEHSGRYECQAWNLDTMISLLSEPQELLVNYVSDVRVSPAAPERQEGSSLTLTCEAESSQDLEFQWLREETDQVLERGPVLQLHDLKREAGGGYRCVASVPSIPGLNRTQLVKLAIFGPPWMAFKERKVWVKENMVLNLSCEASGHPRPTISWNVNGTASEQDQDPQRVLSTLNVLVTPELLETGVECTASNDLGKNTSILFLELVNLTTLTPDSNTTTGLSTSTASPHTRANSTSTERKLPEPESRGVVIVAVIVCILVLAVLGAVLYFLYKKGKLPCRRSGKQEITLPPSRKTELVVEVKSDKLPEEMGLLQGSSGDKRAPGDQGEKYIDLRH	
	mouse anti-human MCAM monoclonal antibody clone 1749.1.3 (antibody, V domains shown, Mouse hybridoma monoclonal antibody; also called m1749) VH: DVKLVESGGDLVKPGGSLKLSCAASGFTFSSYIMSWVRQTPEKRLEWVATISSGGSSTYYPDSVKGRFTISRDNAKNTLYLQMSSLKSEDTAMYYCTRDDDYDVKVFAYWGQGTLVTVSA VL: DIVMSQSPSSLAVSAGEKVTMNCKSSRSLLNSRIRKNYLAWYQQKPGQSPKLLIYWASTRESGVPDRFTGSGSGTDFTLTISSVQAEDLAVYYCKQSYNLLTFGAGTKLELK	< 30

Reference: patent WO2017046774A2 (dated 2017)
